This assay concerns the target protein phosphatase 1 catalytic subunit, γ-isoform (PPP1CCγ) (human, UniProt P36873 1-323). The assay can be described thus: cell-based or functional assay.

This is an account of results in PMC9452301 (Nature, 2022).

Chain of protein phosphatase 1 catalytic subunit, γ-isoform (PPP1CCγ) (P36873 whole entry, canonical isoform): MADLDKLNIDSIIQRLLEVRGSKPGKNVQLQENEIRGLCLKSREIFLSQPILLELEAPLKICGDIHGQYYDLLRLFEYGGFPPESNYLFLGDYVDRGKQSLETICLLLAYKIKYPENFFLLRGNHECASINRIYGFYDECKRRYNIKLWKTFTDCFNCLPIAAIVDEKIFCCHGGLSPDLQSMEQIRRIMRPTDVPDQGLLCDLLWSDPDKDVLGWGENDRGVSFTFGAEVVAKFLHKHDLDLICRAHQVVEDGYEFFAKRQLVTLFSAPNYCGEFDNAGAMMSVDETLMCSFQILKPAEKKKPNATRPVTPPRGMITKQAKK

B1: N-terminally truncated SHOC2 (SHOC2-ΔN; residues 91–582) (domain or fragment)
chain: IKELNKCREENSMRLDLSKRSIHILPSSIKELTQLTELYLYSNKLQSLPAEVGCLVNLMTLALSENSLTSLPDSLDNLKKLRMLDLRHNKLREIPSVVYRLDSLTTLYLRFNRITTVEKDIKNLSKLSMLSIRENKIKQLPAEIGELCNLITLDVAHNQLEHLPKEIGNCTQITNLDLQHNELLDLPDTIGNLSSLSRLGLRYNRLSAIPRSLAKCSALEELNLENNNISTLPESLLSSLVKLNSLTLARNCFQLYPVGGPSQFSTIYSLNMEHNRINKIPFGIFSRAKVLSKLNMKDNQLTSLPLDFGTWTSMVELNLATNQLTKIPEDVSGLVSLEVLILSNNLLKKLPHGLGNLRKLRELDLEENKLESLPNEIAYLKDLQKLVLTNNQLTTLPRGIGHLTNLTHLGLGENLLTHLPEEIGTLENLEELYLNDNPNLHSLPFELALCSKLSIMSIENCPLSHLPPQIVAGGPSFIIQFLKMQGPYRAMV
On to B1, for which the “Kd^app of SHOC2 from peptide dephosphorylation (25 nM PP1C, 1 µM MRAS(GCP))” value is ~40 fold weaker than full-length SHOC2.
